Data: paper PMC5902045, “Degenerate Pax2 and Senseless binding motifs improve detection of low-affinity sites required for enhancer specificity”

Key:
[1] = molecular target: Pax2 (UniProt Q8IM96 175-301); test: EMSA; Native PAGE EMSA, probe 0.36 uM, LI-COR imaging; protein amounts in ng; buffer, salt, pH and temperature not given (cited to refs 43, 64); conditions: protein: recombinant; tags: His
[2] = molecular target: Senseless (Sens) (UniProt Q9N658 413-520); test: as above; conditions: protein: recombinant; tags: His
Senseless (Sens), sequence (Q9N658 413-520): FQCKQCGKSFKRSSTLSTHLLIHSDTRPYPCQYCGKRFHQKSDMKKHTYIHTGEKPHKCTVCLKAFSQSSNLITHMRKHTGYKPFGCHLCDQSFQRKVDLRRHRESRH

Pax2, sequence (Q8IM96 entry or part of it): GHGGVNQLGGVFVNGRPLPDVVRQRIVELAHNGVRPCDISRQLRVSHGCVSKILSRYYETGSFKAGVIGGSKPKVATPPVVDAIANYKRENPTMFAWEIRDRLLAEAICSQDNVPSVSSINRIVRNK

Row | Binder | binding result [1] | binding result [2]
1 | RhoA-WT (dsDNA) DNA 1: TCGTTGCAGTTCATTGATTGACATTTTTATTATGCATATTCGCTGGT DNA 2: ACCAGCGAATATGCATAATAAAAATGTCAATCAATGAACTGCAACGA | binds | binds
2 | RhoA-PSSS (strong Pax2 and Sens sites) (dsDNA) DNA 1: TCGTCACGGTGCACTGATTGACATTTTTATTATGCATATTCGCTGGT DNA 2: ACCAGCGAATATGCATAATAAAAATGTCAATCAGTGCACCGTGACGA | binds | binds
3 | RhoA-PM (Pax2 site mutant) (dsDNA) DNA 1: TCGGGTCAGTTCATTGATTGACATTTTTATTATGCATATTCGCTGGT DNA 2: ACCAGCGAATATGCATAATAAAAATGTCAATCAATGAACTGACCCGA |  | binds
4 | RhoA-SM (Sens site mutant) (dsDNA) DNA 1: TCGTTGCAGTTGGTTGATTGACATTTTTATTATGCATATTCGCTGGT DNA 2: ACCAGCGAATATGCATAATAAAAATGTCAATCAACCAACTGCAACGA |  | no binding
5 | RhoA-PS (strong Pax2 site) (dsDNA) DNA 1: TCGTCACGGTTCATTGATTGACATTTTTATTATGCATATTCGCTGGT DNA 2: ACCAGCGAATATGCATAATAAAAATGTCAATCAATGAACCGTGACGA | binds | binds
6 | RhoA-SS (strong Sens site) (dsDNA) DNA 1: TCGTTGCAGTGCACTGATTGACATTTTTATTATGCATATTCGCTGGT DNA 2: ACCAGCGAATATGCATAATAAAAATGTCAATCAGTGCACTGCAACGA |  | binds
7 | RhoA-SM/SM (dsDNA) DNA 1: TCGTTGCAGTTGGTTGATTGACATTTTTATTATGCATGGTTGATTGA DNA 2: TCAATCAACCATGCATAATAAAAATGTCAATCAACCAACTGCAACGA |  | no binding
8 | RhoA-SM/SS (dsDNA) DNA 1: TCGTTGCAGTTGGTTGATTGACATTTTTATTATGCAGCACTGATTGA DNA 2: TCAATCAGTGCTGCATAATAAAAATGTCAATCAACCAACTGCAACGA |  | binds
9 | RhoA-SM/SWT (dsDNA) DNA 1: TCGTTGCAGTTGGTTGATTGACATTTTTATTATGCATCATTGATTGA DNA 2: TCAATCAATGATGCATAATAAAAATGTCAATCAACCAACTGCAACGA |  | binds
